# Test results as given in paper PMC12441120, “Gephyrin filaments represent the molecular basis of inhibitory postsynaptic densities” (Nature Communications, 2025).
# B1: isolated gephyrin E-domain, wild type (GephE^WT, residues 327–736) (domain or fragment, human, UniProt Q9NQX3 327-736, looked up)
# chain: DKAFITVLEMTPVLGTEIINYRDGMGRVLAQDVYAKDNLPPFPASVKDGYAVRAADGPGDRFIIGESQAGEQPTQTVMPGQVMRVTTGAPIPCGADAVVQVEDTELIRESDDGTEELEVRILVQARPGQDIRPIGHDIKRGECVLAKGTHMGPSEIGLLATVGVTEVEVNKFPVVAVMSTGNELLNPEDDLLPGKIRDSNRSTLLATIQEHGYPTINLGIVGDNPDDLLNALNEGISRADVIITSGGVSMGEKDYLKQVLDIDLHAQIHFGRVFMKPGLPTTFATLDIDGVRKIIFALPGNPVSAVVTCNLFVVPALRKMQGILDPRPTIIKARLSCDVKLDPRPEYHRCILTWHHQEPLPWAQSTGNQMSSRLMSMRSANGLLMLPPKTEQYVELHKGEVVDVMVIGRL
# Legend:
# [1] = target: full-length wild-type gephyrin (Geph^WT) (human) (UniProt Q9NQX3); test: SEC; analytical SEC (Superdex 6 increase or Superose 6 increase 10/300 GL) in grid buffer (25 mM Tris pH 7.5, 250 mM NaCl, 25 mM Arg/Glu, 5 mM β-mercaptoethanol, 1.5% sucrose); Geph^WT with a 3-fold excess of GlyR-loop; no filaments seen in SEC
# [2] = target: the molecule itself; test: cell-based or functional assay
Molecule,stoichiometry N [1],sedimentation assay of in vitro phase separation (LLPS) with GlyR-LD: GephE in the pellet fraction against the sample without GlyR-LD [2]
full-length wild-type gephyrin (Geph^WT) (from UniProt Q9NQX3 1-736) (natural protein),3,
B1,,~10 fold
